Test results reported in publication doi:10.1101/2024.01.24.577129, “IgG hexamers initiate acute lung injury” (bioRxiv, 2024).

Columns and labels:
[1] = molecular target: T1, K^b MHC class I monomer presenting SIINFEKL (Mus musculus, H-2b haplotype (K^b), UniProt P01901;P01887); assay: SPR; monoclonal antibody bound via amine coupling to SensEye G Easy2Spot sensors; serial dilutions (0.5-200 nM) of MHC class I monomers injected; triplicate; IBIS MX96 SPR imager; settings: both partners purified
T1 construct: Commercial MHC class I monomer; also called H-2K^b; MBL International TB-5001-M; copies: + +

[2] = molecular target: T2, D^b MHC class I monomer presenting … (Mus musculus, H-2b haplotype (D^b), UniProt P01899;P01887); assay: as above; settings: both partners purified
T2 construct: Commercial MHC class I monomer; also called H-2D^b; MBL International TB-5008-M; copies: + +

[3] = molecular target: T3, K^d MHC class I monomer presenting VYLKTNVFL (Mus musculus, H-2d haplotype (K^d), UniProt P01902;P01887)
T3 chain 1: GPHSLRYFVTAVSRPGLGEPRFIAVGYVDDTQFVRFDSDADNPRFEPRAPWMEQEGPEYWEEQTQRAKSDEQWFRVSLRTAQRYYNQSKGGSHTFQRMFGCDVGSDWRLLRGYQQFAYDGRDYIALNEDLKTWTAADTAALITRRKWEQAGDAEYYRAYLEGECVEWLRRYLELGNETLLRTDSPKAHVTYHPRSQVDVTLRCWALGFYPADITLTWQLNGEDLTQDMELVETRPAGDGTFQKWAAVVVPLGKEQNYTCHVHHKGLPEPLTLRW
T3 chain 2: not shown
T3 chain 3: VYLKTNVFL

Row | Binder | binding result [1] | binding result [2] | binding result [3]
1 | 34-1-2S antibody (antibody, V domains shown, heavy chain variable region of 34-1-2S; mouse IgG2a heavy chain constant region; the class follows from the mIgG2a isotype control and the mIgG2a model; light chain variable region of 34-1-2S; light chain constant region of the mouse antibody; Mouse IgG2a monoclonal antibody; also called clone 34-1-2S; MHC class I alloantibody 34-1-2S; source: bought: BioXCell Cat# BE0180 (stated for the injury …)) VH: EVQLQQSGAEFVRPGASVKLSCTASGFNLKDDYMFWVKQRPEQGLEWIGWIAPDNGDTEYASKFQGKATITADTSSNTAYVQLSSLTSEDTAVYYCTTWGYYSYVNYWGQGTTLTVSS VL: DIQMTQSPSSLSASLGERVSLTCRASQDIGSNLNWLQQEPDGTIKRLIYATYSLDSGVPKRFSGSRSGSDYSLTISSLESEDFVDYYCLQYASSPYTFGGGTKLEIK | binds | no binding (tested: 0.5-200 nM) | 
2 | Kd1 (antibody, V domains shown) VH: EVLLVESGGDLVKPGGSLKLSCAASGFTFRTYAMSWVRQTPEKRLEWVATIGDDGSYTFYPDNVKGRFTISRDNAKNNLYLQMRHLKSEDTAIYFCARDGLFAYWGQGTLVTVSA VL: DIQMTQSPSSLSASLGGKVTITCKASQDIKKNIAWYQYKPGKGPRLLIHYTSTLQPGISSRFSGSGSGRDYSFSISNLEPEDIATYYCLQYDSLLYTFGGGTKLEIK |  |  | binds
